Source: US20090202556A1 (Kyowa Kirin, published 2009)

Tests used:
[1] = molecular target: T1, 6-EL1/4-EL2 (CLDN4-CLDN6 fusion protein: EL1 of CLDN6, EL2 of CLDN4, myc/His at the C-terminal side), … (human); assay: FCM on live 6-EL1/4-EL2/CHO cells
T1 chain: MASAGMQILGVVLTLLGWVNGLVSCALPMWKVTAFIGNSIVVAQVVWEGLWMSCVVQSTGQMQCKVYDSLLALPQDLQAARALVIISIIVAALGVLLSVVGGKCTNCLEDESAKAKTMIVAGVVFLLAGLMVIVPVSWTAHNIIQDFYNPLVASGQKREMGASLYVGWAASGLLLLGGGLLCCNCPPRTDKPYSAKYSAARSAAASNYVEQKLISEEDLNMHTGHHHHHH

[2] = molecular target: T2, CLDN6-myc/His (fusion protein in which myc/His was added to the C-terminal of human CLDN6), expressed in CHO … (human, UniProt P56747 1-220); assay: FCM on live CLDN6/CHO cells
T2 chain: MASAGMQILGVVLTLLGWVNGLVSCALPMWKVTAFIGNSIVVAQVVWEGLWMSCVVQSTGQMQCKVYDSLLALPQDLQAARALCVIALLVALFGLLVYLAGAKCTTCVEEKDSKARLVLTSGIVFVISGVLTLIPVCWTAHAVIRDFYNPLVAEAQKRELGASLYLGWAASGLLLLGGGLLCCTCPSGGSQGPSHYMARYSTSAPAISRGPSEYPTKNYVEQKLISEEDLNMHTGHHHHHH
Description: (§1) Each of CLDN3/CHO, CLDN4/CHO, CLDN5/CHO, CLDN6/CHO and CLDN9/CHO was cultured for 3 to 4 days and peeled off using 0.02% EDTA solution (manufactured by Nacalai Tesque), and the recovered cells were washed with PBS and, in order to avoid nonspecific adsorption of antibodies, blocked at ice temperature for 30 minutes. The cells were dispensed at 1 to 5×10⁵ cells/100 μl BSA-PBS into a 96-well U bottom plate and centrifuged (1,500 rpm, 5 minutes), the supernatant was removed and then a mouse anti-serum to be immunized, a culture supernatant of hybridoma KM3900 (8.6 μg/ml), anti-CLDN4 monoclonal antibodies KM3900 and KM3907 diluted to 5 μg/ml and a mouse IgG2a isotype control (manufactured by DAKO) were dispensed as the primary antibodies at 100 μl/well and allowed to react at ice temperature for 60 minutes. After the reaction and then washing with BSA-PBS once, FITC-labeled anti-mouse immunoglobulin G (H+L) (manufactured by DAKO) diluted 50-fold with BSA-PBS was added thereto as the secondary antibody at 100 μl/well and allowed to react at ice temperature for 30 minutes under shading. After washing again once with BSA-PBS and subsequently suspending in PBS, the fluorescent intensity was measured by FCM (manufactured by Beckman Coulter).

[3] = molecular target: T3, CLDN9-myc/His (fusion protein in which myc/His was added to the C-terminal of human CLDN9), expressed in CHO … (human, UniProt O95484 1-217); assay: FCM on live CLDN9/CHO cells
T3 sequence: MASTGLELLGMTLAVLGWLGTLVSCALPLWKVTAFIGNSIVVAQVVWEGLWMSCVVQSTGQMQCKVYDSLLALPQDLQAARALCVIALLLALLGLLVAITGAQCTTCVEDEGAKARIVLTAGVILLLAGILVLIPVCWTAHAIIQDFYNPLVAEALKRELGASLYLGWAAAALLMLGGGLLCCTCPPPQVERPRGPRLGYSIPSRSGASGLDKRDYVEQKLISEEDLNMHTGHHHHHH
Description: as §1

[4] = molecular target: T4, CLDN4-myc/His (fusion protein in which myc/His was added to the C-terminal of human CLDN4), expressed in CHO … (human, UniProt O14493 1-209); assay: FCM on live CLDN4/CHO cells
T4 construct: On live cells in FCM; as cell extract in Western blotting (denatured) and immunoprecipitation (Triton X-100 lysate); also called CLDN4-myc/His gene-introduced CHO cell
T4 sequence: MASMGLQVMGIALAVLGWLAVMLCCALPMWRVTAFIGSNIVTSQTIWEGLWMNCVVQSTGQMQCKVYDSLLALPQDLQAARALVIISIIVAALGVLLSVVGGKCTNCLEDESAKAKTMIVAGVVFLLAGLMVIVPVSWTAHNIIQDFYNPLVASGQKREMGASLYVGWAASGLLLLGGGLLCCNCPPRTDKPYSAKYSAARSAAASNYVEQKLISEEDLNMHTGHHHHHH
Description: as §1

[5] = molecular target: T5, CLDN3-myc/His (fusion protein in which myc/His was added to the C-terminal of human CLDN3), expressed in CHO … (human, UniProt O15551 1-220); assay: FCM on live CLDN3/CHO cells
T5 construct: also called CLDN3-myc/His gene-introduced CHO cell; not shown: C-terminal myc/His tag
T5 sequence: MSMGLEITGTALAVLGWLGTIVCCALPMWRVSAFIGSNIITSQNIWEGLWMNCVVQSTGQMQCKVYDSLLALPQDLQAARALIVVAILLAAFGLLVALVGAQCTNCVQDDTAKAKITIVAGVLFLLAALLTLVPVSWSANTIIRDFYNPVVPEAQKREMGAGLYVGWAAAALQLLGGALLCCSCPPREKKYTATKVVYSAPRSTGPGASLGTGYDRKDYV
Description: as §1

[6] = molecular target: T6, 4-EL1/6-EL2 (CLDN4-CLDN6 fusion protein: EL1 of CLDN4, EL2 of CLDN6, myc/His at the C-terminal side), … (human); assay: FCM on live 4-EL1/6-EL2/CHO cells
T6 chain: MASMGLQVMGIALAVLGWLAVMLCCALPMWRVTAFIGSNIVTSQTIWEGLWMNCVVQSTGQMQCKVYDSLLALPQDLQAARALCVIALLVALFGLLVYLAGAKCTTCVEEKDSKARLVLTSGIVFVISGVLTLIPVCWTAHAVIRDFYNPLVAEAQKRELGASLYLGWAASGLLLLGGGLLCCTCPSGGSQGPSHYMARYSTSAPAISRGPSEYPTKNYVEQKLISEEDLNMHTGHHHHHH

[7] = molecular target: T7, CLDN5-myc/His (fusion protein in which myc/His was added to the C-terminal of human CLDN5), expressed in CHO … (human, UniProt O00501 1-218); assay: FCM on live CLDN5/CHO cells
T7 sequence: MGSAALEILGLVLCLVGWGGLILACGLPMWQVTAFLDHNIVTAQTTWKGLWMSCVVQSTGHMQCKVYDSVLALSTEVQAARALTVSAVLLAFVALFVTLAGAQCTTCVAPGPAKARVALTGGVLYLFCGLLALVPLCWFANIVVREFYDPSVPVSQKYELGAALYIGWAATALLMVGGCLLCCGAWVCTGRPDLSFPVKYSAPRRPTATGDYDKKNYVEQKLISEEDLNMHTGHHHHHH
Description: as §1

Binder	binding result [1]	binding result [2]	binding result [3]	binding result [4]	binding result [5]	binding result [6]	binding result [7]
anti-CLDN4 monoclonal antibody KM3907 produced by hybridoma KM3907 (FERM BP-10885) (antibody, mouse IgG2a, V domains shown) VH: QVQLQQSGPELVKPGASVKISCKASGYAISTSWMNWVKQRPGKGLEWIGRINPGDGNTNYNGKFMAKATLTADKPSSTAYMQLSSLTSEDSAVYFCTRGDRWSGAMDYWGQGTSVTVSS VL: GNVLTQSPAIMSASPGEKVTMTCRASSSVSSSYLHWYQQKSGASPKLWIYSTSNLASGVPVRFSGSGSGTSYSLTISSVEAEDAATYYCQQYSGFPLTFGAGTKLELK	no binding	no binding (tested: 5 µg/ml)	no binding (tested: 5 µg/ml)	binds	binds	binds	no binding (tested: 5 µg/ml)
anti-CLDN4 monoclonal antibody KM3900 produced by hybridoma KM3900 (FERM BP-10751) (antibody, V domains shown, Used as hybridoma culture supernatant (8.6 µg/ml) or purified antibody (5 µg/ml); also called anti-CLDN4 mouse antibody KM3900) VH: EVQLQQSGPELVKPGASVKISCKASGYTFTDYYMNWVKQSHGKSLEWIGDVVPNNGVPTYNQKFKGKATLTVDKSSSTAYMELRSLTSEDSAVYYCARPHYYYAGRSGAMDYWGQGTSVTVSS VL: QIVLTQSPAIMSASLGERVTMTCTASSTVSSTYLHWYQQKPGSSPKLWIYSTSNLASGVPARFSGSGSGTSYSLTISSMEAEDAATYYCHQYHRSPPTFGGGTKLEIK	binds	no binding (tested: 5 µg/ml)	no binding (tested: 5 µg/ml)	binds	no binding (tested: 5 µg/ml)	no binding	no binding (tested: 5 µg/ml)
